Measured values published in a protein production outcome set (Wang et al. 2014).

Test: label from the status in PepcDB records

Row | Sequence | protein production
1 | MPCTPDTTSHPCFTEKAAQSCGRVHLPVAPKCNVLCGYCNRKYDCVNESRPGVTSGVLTPAQAADYLDRVLEREPAIRVAGIAGPGDPMANAAATLETLRLIRQRHPDMLFCLSSNGLGMPPHLDALAANGVTHATLTINAVDPDISARLYTWVRDGKVVWRGRPAAELMLERQLTALTGLVQRGIVVKVNTILVPGINDGHVEQVAEKVAALGATLMNIIPLHPTHDTPLAQVAEPSPEAVGEARRLAGAHIRQMTHCRRCRADAVGLLHHDRSRELAPLLRECAQKDDGAGARPFVAVATREGMLVNQHLGEATRLQIWGLGPARSGKGGTTTGGEAASGRNDAKGTGSGDVPGSTGGNSWGKAGATPWDSEEDKNDKRTDSTGSTGGDSGAVCGTTHGTTCGKDATRAGTDATDMPVPVLLEERATPRPGCGPERWHALADMLKDCRAVLTAACGESPRAILREHGITVTECAGIVEDVVGAVLAGLDVNAFRARKGGVSKGCCRGGGDGC | failed
2 | MGRVYYGGVERTYLYRGRILNLALEGRYEIVEHKPAVAVIALREGRMLFVRQMRPAVGLAPLEIPAGLIEPGEDPLEAARRELAEETGLSGDLTYLFSYFVSPGFTDEKTHVFLAENLKEVEAHPDEDEAIEVVWMRPEEALERHQRGEVEFSATGLVGVLYYHAFLRGR | not failed
3 | MSKPEFIARQGRKPTGWLGHIVARVMARETRPENDRALSFLDLADGDSLIDIGCGHGETLFQADRIVRLSGSVGVDFSEVMLKRARARNRDAVWDTRMAFHCADTAALPFPDKRFGKALSVHTIYFWPNPAAHLAEAFRVLRRGGRFLFCYRSTADRRAVEEFPDTVYRFPSVQEVEEKLKLVGFLGPETTTEDIKGRLTHWSIAEKPLEHHHHHH | not failed
4 | GRDLLLAVDVSGSMDYRDMRWQDDEISRLELIKKLFGDFIEDRRGDRVGLILFGSQAYLQAPLTFDRHTVRVWLDEAQIGIAGKNTAIGDAIGLAVKRLRQRPAESRVLVLITDGANTGGQIAPQIAAQLAAEQQVKIYTIGIGADPQQGGVPGLFGFNPGLDLDEPTLRGIAESTGGEYFRARSSAELESISATLDRLEPVA | failed
5 | MKKKLDRREAVRSEKKTLPWRKKRSSRGCCWRRRVATAVGEEESRRLMEKTRRDGEEEEVTSDGGSWNGKKKLYRRRRRYLGEETDRLAAEAGEEELRRLLENKRRGREEEERRRRNQIEEEERRRRRK | failed
6 | MGSCCSCLNRDSVPDNHPTKFKVTNVDDEGVELGSGVMELTQSELVLHLHRREAVRWPYLCLRRYGYDSNLFSFESGRRCQTGQGIFAFKCSRAEEIFNLLQDLMQCNSINVMEEPVIITRNSHPAELDLPRAPQPPNALGYTVSSFSNGCPGEGPRFSAPRRLSTSSLRHPSLGEESTHALIAPDEQSHTYVNTPASEDDHRRGRHCLQPLPEGQAPFLPQARGPDQRDPQVFLQPGQVKFVLGPTPARRHMVKCQGLCPSLHDPPHHNNNNEAPSECPAQPKCTYENVTGGLWRGAGWRLSPEEPGWNGLAHRRAALLHYENLPPLPPVWESQAQQLGGEAGDDGDSRDGLTPSSNGFPDGEEDETPLQKPTSTRAAIRSHGSFPVPLTRRRGSPRVFNFDFRRPGPEPPRQLNYIQVELKGWGGDRPKGPQNPSSPQAPMPTTHPARSSDSYAVIDLKKTVAMSNLQRALPRDDGTARKTRHNSTDLPL | not failed
7 | MSPAAECRRQLSLDSSEAIGLQPLMQRASNTAGVFVMIDTQLEQQLQGFSALQSLFEADFDVRRLFTAEDALEAGEYGRLTVEALRNDPAAGQLFEERWVLPELNLSSLLQLPEGSFGRVYAEMLVGNGFDPDYVIQIAPVEGDDDLSYFKRLWRTTHDFHHIATGLGTDPRGEVALQAFLMGQLPIPFSVVVVSMGLLRTSVAQPDRIPALVDAISDAFRRGRHSPQLLLAQRWDHFWALPVAEVRQQLQIADLEHHHHHH | failed
8 | MSINLSKGDKIDLKKSNPGLSNILVGLGWDPVQQSGGGFFKSLFGGGQADIDCDASVFMLNQEGKLSGIKDLIYFGNLKSACKSVLHTGDNLTGEGTGDDEQILVNLDKVPSNIHKLLFVVNIYNCVDRKQHFGMIENAYIRVEDQGNKKEIAKYNLSDNYSEKTTLIVGAIYRKDGSWQFKAIGEGTKDAGLKEVMQNLDRIECAYGI | failed
9 | MAPARLRADTGSGEPIIHSTLLYILLAATISGVGSIFGAALLSLTVASRVVERMVSFSVGVLLATALLHSLPEAFESGADTRALFGTLLAGLLGFFLLEKISLLRHSHHHEGDGHHHHHGHDREEAGRSGLTILVGDTFHNFADGIVIAAAFLANPHIGIVTALAIAAHEIPQEVGDFIVLLNAGFSKARAFAFNLLSSLAAIIGGLVGYFLLDQLTGWIPYVLVIASSSFLYIAVSDLMPQMQRKPRLKESAVQVVLVAAGIAAIVFITNGVHEQHGHRHSRTAAGVTSN | failed
10 | MEQMKITNLTGEQISFQLILHSGNARSCIIQSLRAYKEGKKDEADALIAKAEQDLSAAHDIHFQMIQKESGGEATAFSLLLMHAEDHLMSTLSMKELVKEMLDLFKTKNI | failed
11 | AIAEAKTLGIATPRKPVLSVSARKLKDNAADWHNLILKWDSLSDKGFTTASSIANLKVSLLSKEKVELESSSPASMEEEEKTNLDYDKGLEALCEELQAILDGLTKIQMKMEKLSSTTKGICELENYHYREESSRPPLFHTWPTAFFYEVSRRLSEAYKKELLLKHTIGAELAHTADRNLSLTYLSMWLHQPYIESNSKLQLESMLLETGHRAL | failed
12 | MNVDFINPFLDSLLNVLKTMANMELKPGKPNLKKDNLAKGDVSGLIGMVGPQTKGSLSITFEETLILEIMNKMLGEKPESIDEEVTDLVGELTNMVTGGAKNLLSDKGYEFDMATPIVVSGKNHTIAHKSDGQKIIMPFSSIYGTAYIEICFEG | not failed
13 | MQPPSHAPRQLAAADLAVGQVVAQREIRLDAQAFAQFAALTGDAHPIHYDAGYAQRQGLRAPIAHGLLLVAISALGATPLSAQLHDAMVAMVGVEAVFMRPVYVDETVQCVYRVAQIEHVAKGRSKTTIAVSIHTTDAPPDAARQAHCVVHLTFLLKTHLQG | failed
14 | MKNFLMKKIIYSGVLSIHFILAFVVNSVGAAQLKKSSTLSMNVLFITIDDLNNDLGAYGHHLVKSPNIDALAKKGIRFDKAYSQSPMCTPSRSSFMTGLYPDQTGIIAHGSHTQMTAHFREHIPKVTTLPQLFKNNGYFSGRVGKIYHQGVPNQIGTSGADDAASWHETVNPIGLDKDVEDKIIAFNEKALVRQSFGGVLSFLAIGDDDKAHTDGKVATETINMIKDHHPDKTGKPFFIGAGFYRPHTPFVAPKKYFDLYPLEKIKPYIAPKNDRKDIPDIALQDREGQVGLTLNQRKQIIQGYYAAVSYVDAQVGRVLDALKQQDLSDNTIVVFLSDHGYELGQHGLWQKGSLFEGSARAPLIIYAPNVKDNGRVVTSPVELVDIYPTLAKLTGLVAPEYLAGKDLTPALNDVDFQVRKGAYSAILNRNKGDNNQFAFTKIRGHSIRTNRYRYTEWGEGYFGAELYDHKNDPQELKNLADKVSLESVRIKMKWLLNDAMDDAQKRIKSIE | failed
15 | AIADELNSPLGERAQGASLAHVVWSDPQWLERYPLTFENVLTYFSRSPFYDPTCNNELVRMQMHPELQGEMLYYTQREEELLLGMQGVEYVPLCSSDAHELFIIRKQVRRSADEVHVTNLYYILYGQVYEAPAFSTVLLVRLRQSADFLVRSLGLLRQWLSKKEYGEPGATGHGHEDTLLLQLLRKAQQRNRQL | failed
16 | MNIILNGGPAELHGTTVADLIAQTAPQKPFAVAVNTVFVPKGAYAETVLNENDKIDIVRPVVGG | failed
17 | MSLKVVIGYLALDDWEFESLFPTIEWKYLTHINASFARVKADGTLNINPVRKRIESVRETAHKHNVKILISLAKNSPGEFTTAINDPKARKELIQQIIAFTKEYKLDGFDIDYEEYDNWDKNFPSLLVFARGLYLAKEKNMLMTCAVNSRWLNYGTEWEQYFDYINLMSYDRGAFTDKPVQHASYDDFVKDLKYWNEQCRASKSKIVGGLPFYGYSWEESLQGAVDDVRGIRYSGILKHLGNEAADKDNIGKTYYNGRPTIANKCKFIKENDYAGVMIWQLFQDAHNDNYDLKLINVVGREMMEEGHHHHHH | not failed
18 | MFRSIKVASIVQIVFAVCAVLLALTVFEYKKALNTFTNDLNLTVSNTLTRLQVNLPKPLWDFDLETVKSAISAELKTPEISSIKITDTTGKAILYLTLDQATDDKGLRKTIAVENEGALAELASVSGELEFVEYGKKNPLGSIEIRYSDEFMHQQLAEYVSFNLLKVLILAILIPCMLFIILNFSVLKPLNELGDKTRTTIQWGCRPHPSVTRS | failed
19 | NKIPTTMAFRTVTDVDNAVNGLYDLMSGSGYYGAAMFAYGDMKGDDMQSSEESGVCNTCYMFNHRPNSLNAGSLWGRPFYILREAWNILNAIAEGKIESGDEKKLNALKGETMAVIALCQFDLTRCFGYPYTKDKGASLGAPLIDHLVGTYENPPRSTVAQAYDFIIETLEEAVTLMSEEKNNGRMNKYAARALLARIYLYHDDNRKAFDLADQLIKDADTSGSYALYPHEKYVAAWSVEAKFGSESFFEIANSVDDTPGRDSWGYLLNWYGYQKGFVTQKYAEQMLADPGDVRGHLLEENKYAGKTVWWLYKLRGTDLKTAPLECNNVVLRLSEVYLIAAEAGCKLGGDAAVQGLGYLNEIVKRGNPDNEVTMADYTLDRVLDERSKELVGEGHRFFDLLRNGKTIVRKGGYHLPSVDEEVDWDFYKCVLPIPEDQFIFSPEMEQNPGYPKN | not failed
20 | MAGFMKNAMSYLGMSDVVDDEDDYIEEDEEQKPASKSAFDSDHTVTPLASTTAPAASSTTKPFPGGRVNRITTIHPKSYEDAQLVGRALRDGVPVVLNLTGVAEAVAYRIVDFSAGVVFGVRGSLERVTPRVFLLSPAQVNIKVEEPTKPASAHDLFADLEHHHHHH | failed
21 | KNASVITVGNEILKGRTVNTNAAFIGNFLTYHGYQVRRGFVVMDDLDEIGWAFRVALEVSDLVVSSGGLGPTFDDMTVEGFAKCIGQDLRIDEDALAMIKKKYGQADLTPQRLKMAKIPPSCRPIENPVGTAPGLICAVGGKKVIILPGVPKEMEALLKAMEKDIIIPD | not failed
22 | TDAFVFEGFLPTRGKRRLEKLANLKGEQRVVIFYEAPGRLQAALADMREVLGDRHVVVARELTKIHEEFVRGRVSFVAEHFAAVDVKGEVVILVAPAPAP | failed
23 | MASQVTAGSSGPVCFLTVGLRLPSARGQPVVSNFNQPRPPQRQRWVDSLLGVSLVALVVAAALPLLLPLVRLPGGSSARDRELAAAQATAFQTVLQRDPDNLSALRSLIGVYLQQQQLQAAIAPLQRLARLQPQQPAYRVLLAQTQAQLGDREAAAQTYRQILETAPTNLEALRGFTQLLLTQKQPTAAVDLLQKARQTDKITPADQVSIDLMLAQVYANQGQIDDAIALYDRSAQNNGRDFRPLLAKALLLKQQGDLQKATPIFQEAIAIAPAQYRDQIRQLSPASMPATPPTQPATKTPPTAPPPPPN | failed
24 | MKYRQWVLGAGFTLSVGLSSVAHAFSIPQPANEIAASKFVHIQVQAEQGDADAQFLLGLMFLSGRYVQQEVPSGLHWITLAAEQQHEKAQQTLADLSFEGQLIKRDLAVAERWYKDMGERGNRWAQFRLGFIYASGGDGVKRNCGKAVEQFTRVGDDIALGNVAWILATCPEAEYRDGNKALELSLQLLKVNENDPTNLDNLAAAYAEVGDFGAAVSTQQKAIAALKMTAEATKTDEFKQRLHSYEQKRAYRETLRLLE | failed
25 | MSLIERVRTDLYRIPLPTRLTDSTHGAMMDFELITVRIEDSDGATGLGYTYTVNHGGAAVATMVDKDLRGCLLGADAEQIEKIWQSMWWRLHYAGRGGHATSAISAVDIALWDLKGIRARTPLWKLFGGYDPVVPVYAGGIDLELPVADLKTQADRFLAGGFRAIKMKVGRPDLKEDVDRVSALREHLGDSFPLMVDANMKWTVDGAIRAARALAPFDLHWIEEPTIPDDLVGNARIVRESGHTIAGGENLHTLYDFHNAVRAGSLTLPEPDVSNIGGYTTFRKVAALAEANNMLLTSHGVHDLTVHALASVPHRTYMEAHGFGLHAYMAEPMAVTDGCVSAPDRPGHGVVLDFERLGRLAVGEGHHHHHH | not failed
